Source: patent US20030068675, “Position dependent recognition of GNN nucleotide triplets by zinc fingers” (published 2003)

How the values were obtained:
Assay in all cases: EMSA
Conditions in all cases: tags: MBP fusion
[1] = target: T1, ZFP SBS#1104 (synthetic)
T1 chain: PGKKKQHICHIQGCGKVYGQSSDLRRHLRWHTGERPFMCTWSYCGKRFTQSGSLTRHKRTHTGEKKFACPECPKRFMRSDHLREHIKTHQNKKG
Method in brief: (§1)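 Purified ZFP was titrated against labeled double-stranded target (1 nM or lower, at least 10-fold below expected Kd) carrying the natural binding site with flanks. Binding buffer was 10 mM Tris pH 7.5, 100 mM KCl, 1 mM MgCl2, 0.1 mM ZnCl2, 5 mM DTT, 10% glycerol, 0.02% BSA, with equilibration for at least 45 min. Bound and free target were separated on a 10% polyacrylamide gel.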

[2] = target: ZFP SBS#1205 (synthetic)
Method in brief: as §1

[3] = target: ZFP SBS#1206 (synthetic)
Method in brief: as §1

[4] = target: ZFP SBS#1107 (synthetic)
Method in brief: as §1

[5] = target: T2, ZFP SBS#1108 (synthetic)
T2 chain: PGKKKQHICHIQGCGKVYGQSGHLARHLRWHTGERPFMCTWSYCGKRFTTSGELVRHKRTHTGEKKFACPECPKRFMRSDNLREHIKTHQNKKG
Method in brief: as §1

[6] = target: T3, ZFP SBS#1207 (synthetic)
T3 chain: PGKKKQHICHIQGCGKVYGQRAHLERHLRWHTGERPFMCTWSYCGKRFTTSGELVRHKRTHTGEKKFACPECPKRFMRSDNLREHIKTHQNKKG
Method in brief: as §1

[7] = target: T4, ZFP SBS#1116 (synthetic)
T4 chain: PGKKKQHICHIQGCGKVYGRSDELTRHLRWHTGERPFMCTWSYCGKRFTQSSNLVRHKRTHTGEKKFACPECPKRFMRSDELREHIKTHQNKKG
Method in brief: as §1

[8] = target: T5, ZFP SBS#1209 (synthetic)
T5 chain: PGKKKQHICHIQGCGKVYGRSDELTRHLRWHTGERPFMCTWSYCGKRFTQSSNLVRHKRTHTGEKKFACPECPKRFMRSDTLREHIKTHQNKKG
Method in brief: as §1

[9] = target: ZFP SBS#1211 (synthetic)
Method in brief: as §1

[10] = target: ZFP SBS#1117 (synthetic)
Method in brief: as §1

[11] = target: ZFP SBS#1179 (synthetic)
Method in brief: as §1

[12] = target: ZFP SBS#1188 (synthetic)
Method in brief: as §1

[13] = target: ZFP SBS#1151 (synthetic)
Method in brief: as §1

[14] = target: T6, ZFP SBS#1189 (synthetic)
T6 chain: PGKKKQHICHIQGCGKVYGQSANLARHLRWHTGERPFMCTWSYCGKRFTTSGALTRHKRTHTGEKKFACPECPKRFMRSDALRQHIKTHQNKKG
Method in brief: as §1

[15] = target: T7, ZFP SBS#1156 (synthetic)
T7 chain: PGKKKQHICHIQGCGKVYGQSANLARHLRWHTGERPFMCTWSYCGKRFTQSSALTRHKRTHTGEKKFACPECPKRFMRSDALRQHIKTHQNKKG
Method in brief: as §1

[16] = target: T8, ZFP SBS#1157 (synthetic)
T8 chain: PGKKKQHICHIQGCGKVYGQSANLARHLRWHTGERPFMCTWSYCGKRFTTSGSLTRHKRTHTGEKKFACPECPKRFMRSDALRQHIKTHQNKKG
Method in brief: as §1

[17] = target: T9, ZFP SBS#480 (synthetic)
T9 chain: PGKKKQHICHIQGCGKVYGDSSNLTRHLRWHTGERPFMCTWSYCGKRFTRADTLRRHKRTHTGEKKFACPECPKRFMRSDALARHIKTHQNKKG
Method in brief: as §1

[18] = target: T10, ZFP SBS#479 (synthetic, UniProt P08047)
T10 chain: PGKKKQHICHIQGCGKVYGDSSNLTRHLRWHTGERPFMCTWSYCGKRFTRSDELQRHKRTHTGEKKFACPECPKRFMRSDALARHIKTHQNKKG
Method in brief: as §1

[19] = target: T11, ZFP SBS#1185 (synthetic)
T11 chain: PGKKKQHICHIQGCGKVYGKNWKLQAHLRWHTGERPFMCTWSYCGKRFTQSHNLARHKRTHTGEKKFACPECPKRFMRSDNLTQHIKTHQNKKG
Method in brief: as §1

[20] = target: T12, ZFP SBS#1184 (synthetic)
T12 chain: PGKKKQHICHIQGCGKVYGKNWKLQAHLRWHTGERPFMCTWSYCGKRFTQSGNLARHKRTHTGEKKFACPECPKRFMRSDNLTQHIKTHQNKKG
Method in brief: as §1

[21] = target: ZFP SBS#1180 (synthetic)
Method in brief: as §1

[22] = target: T13, ZFP SBS#1186 (synthetic)
T13 chain: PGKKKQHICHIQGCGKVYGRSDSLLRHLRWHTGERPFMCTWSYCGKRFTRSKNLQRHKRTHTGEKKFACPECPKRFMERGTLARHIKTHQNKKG
Method in brief: as §1

[23] = target: T14, ZFP SBS#1187 (synthetic, UniProt P08047)
T14 chain: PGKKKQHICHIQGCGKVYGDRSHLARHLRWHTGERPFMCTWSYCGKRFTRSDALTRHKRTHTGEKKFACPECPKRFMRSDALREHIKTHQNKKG
Method in brief: as §1

[24] = target: ZFP SBS#1192 (synthetic)
Method in brief: as §1

[25] = target: ZFP SBS#1190 (synthetic)
Method in brief: as §1

[26] = target: T15, ZFP SBS#1193 (synthetic)
T15 chain: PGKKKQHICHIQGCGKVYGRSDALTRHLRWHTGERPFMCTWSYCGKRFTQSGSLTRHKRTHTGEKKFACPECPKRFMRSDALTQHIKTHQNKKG
Method in brief: as §1

[27] = target: T16, ZFP SBS#1191 (synthetic)
T16 chain: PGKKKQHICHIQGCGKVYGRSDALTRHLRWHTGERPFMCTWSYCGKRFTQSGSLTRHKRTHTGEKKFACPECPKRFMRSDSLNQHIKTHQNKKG
Method in brief: as §1

[28] = target: T17, ZFP SBS#1195 (synthetic)
T17 chain: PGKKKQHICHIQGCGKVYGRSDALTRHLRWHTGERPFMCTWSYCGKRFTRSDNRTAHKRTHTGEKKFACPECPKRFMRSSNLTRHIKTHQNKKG
Method in brief: as §1

[29] = target: T18, ZFP SBS#1194 (synthetic)
T18 chain: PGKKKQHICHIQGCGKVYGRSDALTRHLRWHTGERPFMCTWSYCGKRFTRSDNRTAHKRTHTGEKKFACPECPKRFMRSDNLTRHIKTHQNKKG
Method in brief: as §1

[30] = target: ZFP SBS#483 (synthetic)
Method in brief: as §1

[31] = target: T19, ZFP SBS#1197 (synthetic)
T19 chain: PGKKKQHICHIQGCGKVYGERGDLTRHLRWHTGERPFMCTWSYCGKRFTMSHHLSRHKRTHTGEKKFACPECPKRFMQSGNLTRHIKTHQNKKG
Method in brief: as §1

[32] = target: T20, ZFP SBS#1199 (synthetic)
T20 chain: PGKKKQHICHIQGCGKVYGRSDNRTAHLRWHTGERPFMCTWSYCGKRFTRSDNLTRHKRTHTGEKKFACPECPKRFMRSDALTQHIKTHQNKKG
Method in brief: as §1

[33] = target: T21, ZFP SBS#1201 (synthetic)
T21 chain: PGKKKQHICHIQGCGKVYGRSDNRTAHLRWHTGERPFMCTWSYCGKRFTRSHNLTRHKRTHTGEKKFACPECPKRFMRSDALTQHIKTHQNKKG
Method in brief: as §1

[34] = target: T22, ZFP SBS#1200 (synthetic)
T22 chain: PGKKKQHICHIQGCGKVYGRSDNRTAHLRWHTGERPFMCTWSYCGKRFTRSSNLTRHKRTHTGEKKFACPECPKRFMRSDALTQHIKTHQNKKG
Method in brief: as §1

[35] = target: T23, ZFP SBS#1202 (synthetic, UniProt P08047)
T23 chain: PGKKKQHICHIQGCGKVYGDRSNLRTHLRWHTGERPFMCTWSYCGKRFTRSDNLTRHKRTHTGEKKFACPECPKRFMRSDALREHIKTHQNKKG
Method in brief: as §1

[36] = target: ZFP SBS#1203 (synthetic)
Method in brief: as §1

[37] = target: ZFP SBS#1204 (synthetic)
Method in brief: as §1

Chain of ZFP SBS#1204 (synthetic) (chain, as listed by the source): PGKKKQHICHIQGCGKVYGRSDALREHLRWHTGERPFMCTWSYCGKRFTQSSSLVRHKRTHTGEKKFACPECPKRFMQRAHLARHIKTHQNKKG
Chain of ZFP SBS#1190 (synthetic) (chain, as listed by the source): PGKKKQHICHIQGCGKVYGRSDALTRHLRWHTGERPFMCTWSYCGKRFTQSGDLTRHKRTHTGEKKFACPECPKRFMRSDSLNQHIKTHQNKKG
Chain of ZFP SBS#1211 (synthetic) (chain, as listed by the source): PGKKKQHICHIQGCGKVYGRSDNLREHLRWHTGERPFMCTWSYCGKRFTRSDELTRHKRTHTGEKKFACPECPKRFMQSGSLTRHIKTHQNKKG
Chain of ZFP SBS#1151 (synthetic) (chain, as listed by the source): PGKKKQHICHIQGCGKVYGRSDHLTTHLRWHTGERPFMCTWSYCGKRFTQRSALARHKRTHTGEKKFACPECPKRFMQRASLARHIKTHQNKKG
Chain of ZFP SBS#483 (synthetic) (chain, as listed by the source): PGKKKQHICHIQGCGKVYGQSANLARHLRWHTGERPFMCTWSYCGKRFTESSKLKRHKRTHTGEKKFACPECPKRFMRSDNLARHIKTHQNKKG
Chain of ZFP SBS#1180 (synthetic) (chain, as listed by the source): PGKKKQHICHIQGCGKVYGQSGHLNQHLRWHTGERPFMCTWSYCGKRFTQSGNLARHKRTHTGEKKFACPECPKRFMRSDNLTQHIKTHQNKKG
Chain of ZFP SBS#1117 (synthetic) (chain, as listed by the source): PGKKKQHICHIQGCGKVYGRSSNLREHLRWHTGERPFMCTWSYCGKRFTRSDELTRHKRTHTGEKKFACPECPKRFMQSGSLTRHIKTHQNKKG
Chain of ZFP SBS#1188 (synthetic) (chain, as listed by the source): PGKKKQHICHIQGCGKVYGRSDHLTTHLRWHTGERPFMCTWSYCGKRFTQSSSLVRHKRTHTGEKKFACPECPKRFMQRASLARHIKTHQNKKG
Chain of ZFP SBS#1179 (synthetic) (chain, as listed by the source): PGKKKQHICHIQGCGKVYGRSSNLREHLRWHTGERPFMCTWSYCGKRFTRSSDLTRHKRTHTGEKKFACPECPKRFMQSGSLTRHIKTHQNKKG
Chain of ZFP SBS#1192 (synthetic) (chain, as listed by the source): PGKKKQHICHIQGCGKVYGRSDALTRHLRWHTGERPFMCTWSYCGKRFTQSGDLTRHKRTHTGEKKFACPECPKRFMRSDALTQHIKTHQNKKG
Chain of ZFP SBS#1206 (synthetic) (chain, as listed by the source): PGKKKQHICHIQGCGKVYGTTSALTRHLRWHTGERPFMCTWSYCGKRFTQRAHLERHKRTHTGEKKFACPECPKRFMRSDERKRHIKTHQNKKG
Chain of ZFP SBS#1205 (synthetic) (chain, as listed by the source): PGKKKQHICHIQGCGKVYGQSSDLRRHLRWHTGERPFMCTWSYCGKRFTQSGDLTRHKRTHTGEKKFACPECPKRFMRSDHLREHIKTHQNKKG

B1: CGGGCAGCT (dsDNA)
DNA 1: CGGGCAGCT
DNA 2: AGCTGCCCG
B1 gave a Kd [1] of 0.08 nM and a Kd [2] of 0.9 nM.

B2: GCGGGAGTT (dsDNA)
DNA 1: GCGGGAGTT
DNA 2: AACTCCCGC
Binder B2 has a Kd [3] of 0.034 nM and a Kd [4] of 0.06 nM.

B3: CAGGCTGGA (dsDNA)
DNA 1: CAGGCTGGA
DNA 2: TCCAGCCTG
B3 showed a Kd [5] of 7 pM and a Kd [6] of 0.45 nM.

B4: CCGGAAGCG (dsDNA)
DNA 1: CCGGAAGCG
DNA 2: CGCTTCCGG
B4 was tested, and the Kd [7] was 12.3 nM and the Kd [8] was 19.3 nM.

B5: GCAGCGCAG (dsDNA)
DNA 1: GCAGCGCAG
DNA 2: CTGCGCTGC
B5 showed a Kd [9] of 6.5 nM, a Kd [10] of 2.85 nM and a Kd [11] of 2.73 nM.

B6: GTAGTATGG (dsDNA)
DNA 1: GTAGTATGG
DNA 2: CCATACTAC
Binder B6 has a Kd [12] of 2.74 nM and a Kd [13] of 1.63 nM.

B7: ATGGTTGAA (dsDNA)
DNA 1: ATGGTTGAA
DNA 2: TTCAACCAT
Work on B7 yielded a Kd [14] of 1.51 nM, a Kd [15] of 7.2 nM and a Kd [16] of 0.885 nM.

B8: GTGGCGGACC (dsDNA)
DNA 1: GTGGCGGACC
DNA 2: GGTCCGCCAC
For B8, the Kd [17] was 5 nM and the Kd [18] was 8.5 nM.

B9: AAGGAAAGA (dsDNA)
DNA 1: AAGGAAAGA
DNA 2: TCTTTCCTT
B9 showed a Kd [19] of 5.25 nM, a Kd [20] of 2.79 nM and a Kd [21] of 4.83 nM.

B10: GCCGAGGTG (dsDNA)
DNA 1: GCCGAGGTG
DNA 2: CACCTCGGC
B10 was tested, and the Kd [22] was 27.5 nM.

B11: CTGGTGGGC (dsDNA)
DNA 1: CTGGTGGGC
DNA 2: GCCCACCAG
B11 showed a Kd [23] of 6 pM.

B12: ATGGCAGTG (dsDNA)
DNA 1: ATGGCAGTG
DNA 2: CACTGCCAT
B12 showed a Kd [24] of 2.36 nM, a Kd [25] of 1.48 nM and a Kd [26] of 3.12 nM. The Kd [27] was 5.33 nM.

B13: GAGAAGGTG (dsDNA)
DNA 1: GAGAAGGTG
DNA 2: CACCTTCTC
In the case of B13, the Kd [28] is reported as 2.8 nM and the Kd [29] is reported as 2.19 nM.

B14: GAGGGCGAAG (dsDNA)
DNA 1: GAGGGCGAAG
DNA 2: CTTCGCCCTC
Work on B14 yielded a Kd [30] of 130 nM.

B15: GAAGGTGCC (dsDNA)
DNA 1: GAAGGTGCC
DNA 2: GGCACCTTC
B15 was tested, and the Kd [31] was 14.8 nM.

B16: ATGGAGAAG (dsDNA)
DNA 1: ATGGAGAAG
DNA 2: CTTCTCCAT
For B16, the Kd [32] was 3.43 nM, the Kd [33] was 14.8 nM and the Kd [34] was 16.9 nM.

B17: CTGGAGTAC (dsDNA)
DNA 1: CTGGAGTAC
DNA 2: GTACTCCAG
Binder B17 has a Kd [35] of 2.83 nM.

B18: GGAGTACTG (dsDNA)
DNA 1: GGAGTACTG
DNA 2: CAGTACTCC
B18 was tested, and the Kd [36] was 2.94 nM and the Kd [37] was 4.38 nM.
